Results: paper PMC6612524

Target: human plasma fibronectin (human)
Assay: ITC; 35 μM peptide titrated into the cell with 2.7 μM human plasma fibronectin; PBS pH 7.4; 25 °C; one set of sites model; duplicates

Chain of human plasma fibronectin (human) (P02751 other isoform, or with tags, fused parts or gaps): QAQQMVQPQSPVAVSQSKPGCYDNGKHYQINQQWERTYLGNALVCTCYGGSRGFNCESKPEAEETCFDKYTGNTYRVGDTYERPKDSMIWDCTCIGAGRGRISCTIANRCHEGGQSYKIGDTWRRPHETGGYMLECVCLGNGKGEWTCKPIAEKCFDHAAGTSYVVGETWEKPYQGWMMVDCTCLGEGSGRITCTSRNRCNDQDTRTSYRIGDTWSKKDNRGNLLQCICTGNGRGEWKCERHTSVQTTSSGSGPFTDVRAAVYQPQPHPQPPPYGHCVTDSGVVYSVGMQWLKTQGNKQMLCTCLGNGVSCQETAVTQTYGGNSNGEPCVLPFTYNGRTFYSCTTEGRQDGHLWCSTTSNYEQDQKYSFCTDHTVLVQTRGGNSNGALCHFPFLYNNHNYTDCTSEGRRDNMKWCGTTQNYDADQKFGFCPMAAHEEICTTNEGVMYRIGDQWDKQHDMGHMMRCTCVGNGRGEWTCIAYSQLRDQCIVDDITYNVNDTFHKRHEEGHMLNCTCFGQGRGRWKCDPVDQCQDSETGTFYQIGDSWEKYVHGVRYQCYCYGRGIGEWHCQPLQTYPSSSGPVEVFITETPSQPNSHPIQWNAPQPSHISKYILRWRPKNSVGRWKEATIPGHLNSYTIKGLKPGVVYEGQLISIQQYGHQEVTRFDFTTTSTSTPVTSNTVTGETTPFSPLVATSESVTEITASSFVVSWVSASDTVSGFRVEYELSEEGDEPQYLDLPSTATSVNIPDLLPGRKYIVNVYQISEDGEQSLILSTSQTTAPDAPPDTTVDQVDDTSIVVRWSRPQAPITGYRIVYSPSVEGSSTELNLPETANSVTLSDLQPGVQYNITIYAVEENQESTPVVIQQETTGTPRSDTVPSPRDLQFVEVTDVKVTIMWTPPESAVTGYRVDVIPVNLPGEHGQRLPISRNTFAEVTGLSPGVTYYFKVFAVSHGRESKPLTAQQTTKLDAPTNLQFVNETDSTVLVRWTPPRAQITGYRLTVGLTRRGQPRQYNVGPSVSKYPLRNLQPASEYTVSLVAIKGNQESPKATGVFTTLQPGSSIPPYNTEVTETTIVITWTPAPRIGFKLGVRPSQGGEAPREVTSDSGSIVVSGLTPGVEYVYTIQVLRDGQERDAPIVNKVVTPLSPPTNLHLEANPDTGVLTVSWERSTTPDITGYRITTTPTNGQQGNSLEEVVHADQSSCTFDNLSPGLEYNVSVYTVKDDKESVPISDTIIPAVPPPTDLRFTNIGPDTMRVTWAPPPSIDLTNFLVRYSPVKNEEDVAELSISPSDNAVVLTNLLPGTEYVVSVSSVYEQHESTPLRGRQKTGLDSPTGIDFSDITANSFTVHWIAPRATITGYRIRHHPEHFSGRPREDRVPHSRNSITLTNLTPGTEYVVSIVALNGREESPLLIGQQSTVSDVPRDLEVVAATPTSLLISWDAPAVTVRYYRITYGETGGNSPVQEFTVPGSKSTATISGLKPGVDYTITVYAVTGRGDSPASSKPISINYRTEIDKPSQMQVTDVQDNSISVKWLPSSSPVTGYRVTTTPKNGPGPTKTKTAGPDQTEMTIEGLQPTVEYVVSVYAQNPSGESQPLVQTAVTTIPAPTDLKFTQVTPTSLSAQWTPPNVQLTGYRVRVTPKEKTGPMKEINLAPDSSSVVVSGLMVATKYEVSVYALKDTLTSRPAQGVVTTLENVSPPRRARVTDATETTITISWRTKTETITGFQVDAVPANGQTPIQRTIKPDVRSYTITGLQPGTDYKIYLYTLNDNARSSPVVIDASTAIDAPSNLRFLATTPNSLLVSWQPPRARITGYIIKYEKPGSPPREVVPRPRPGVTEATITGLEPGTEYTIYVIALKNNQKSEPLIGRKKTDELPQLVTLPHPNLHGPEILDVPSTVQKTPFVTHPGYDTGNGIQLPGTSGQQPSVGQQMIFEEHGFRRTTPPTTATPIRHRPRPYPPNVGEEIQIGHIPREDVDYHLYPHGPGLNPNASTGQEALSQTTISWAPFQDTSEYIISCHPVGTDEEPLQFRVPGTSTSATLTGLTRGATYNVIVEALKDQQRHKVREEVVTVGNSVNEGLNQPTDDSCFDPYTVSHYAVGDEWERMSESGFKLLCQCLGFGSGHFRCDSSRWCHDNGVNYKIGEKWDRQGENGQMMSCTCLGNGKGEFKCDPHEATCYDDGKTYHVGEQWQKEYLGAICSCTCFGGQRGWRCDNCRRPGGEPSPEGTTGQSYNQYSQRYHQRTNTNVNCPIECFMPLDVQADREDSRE

Substance | Kd | dH | stoichiometry N
Functional Upstream Domain (FUD) peptide (peptide; other documents disagree on this pair) | 4.3 nM | -33 kcal/mol | 1.47
sulfo-Cy5 labeled 20 kDa PEG-FUD (peptide; other documents disagree on this pair) | 13 nM | -35 kcal/mol | 1.5
singly sulfo-Cy5 labeled FUD peptide (peptide; other documents disagree on this pair) | 4.7 nM | -35.8 kcal/mol | 1.48
